The labels stand for the following.
B1: CPEB3 Ribozyme (parent)
chain: GGGGGCCACAGCAGAAGCGUUCACGUCGCGGCCCCUGUCAGAUUCUGGUGAAUCUGCGAAUUCUGCUGU

This data set covers variants of B1. Nature of the data set: self-cleavage, relative activity (ratio to wild type); higher = more cleavage; co-transcriptional.
With GGCGGCCACAGCAGAAGCGUUCACGUCGCGGCCCCUGUCAGAUUCUGGUGAAUCUGCGAAUUCUCCUGU, the self-cleavage was determined as 0.0156.

For the variant GGCGGCCACAGCAGAAGCGUUCACGUCGCGGCCCCUGUCAGAUUCUGGUGAAUCUGCGAAUUCUUCUGU, the self-cleavage was 0.0451.

Consider GGCGGCCACAGCAGAAGCGUUCACGUCGCGGCCCCUGUCAGAUUCUGGUGAAUCUGCGAAUUCUGCUAU, for which the self-cleavage is 0.4.

For the variant GGCGGCCACAGCAGAAGCGUUCACGUCGCGGCCCCUGUCAGAUUCUGGUGAAUCUGCGAAUUCUGCUCU, the self-cleavage came out at 0.432.

As to GGCGGCCACAGCAGAAGCGUUCACGUCGCGGCCCCUGUCAGAUUCUGGUGAAUGUGCGAAUUCUGCUGU, the self-cleavage was 0.0518.

On to GGCGGCCACAGCAGAAGCGUUCACGUCGCGGCCCCUGUCAGAUUCUGUUGAAUCUGCGAAUUCUGCUGU, for which the self-cleavage was found to be 0.16.

With GGCGGCCACAGCAGAAGCGUUCACGUCGCGGCCCCUGUCAGAUUCUGCUGAAUCUGCGAAUUCUGCUGU, the self-cleavage was determined as 0.105.

Consider GGCGGCCACAGCAGAAGCGUUCACAUCGCGGCCCCUGUCAGAUUCUGGUGAAUCUGCGAAUUCUGCUGU, for which the self-cleavage was 0.0214.

For GGCGGCCACAGCAGAAGCGUUCACCUCGCGGCCCCUGUCAGAUUCUGGUGAAUCUGCGAAUUCUGCUGU, the self-cleavage was determined as 0.0602.

Regarding GGCGGCCACAGCAGAAGCGUUCACUUCGCGGCCCCUGUCAGAUUCUGGUGAAUCUGCGAAUUCUGCUGU, the self-cleavage came to 0.047.

Consider GGCGGCCACAGCAGAAGCGUUCACGUCGCGGCCCCUAUCAGAUUCUGGUGAAUCUGCGAAUUCUGCUGU, for which the self-cleavage was determined as 0.0325.

As for GGCGGCCACAGCAGAAGCGUUCACGUCGCGGCCCCUUUCAGAUUCUGGUGAAUCUGCGAAUUCUGCUGU, the self-cleavage came to 0.0466.

As to GGCGGCCACAGCAGAAGCGUUCACGUCGCGGCCCCUCUCAGAUUCUGGUGAAUCUGCGAAUUCUGCUGU, the self-cleavage worked out at 0.0266.

On to GGCGGCCACAGCAGAAGCGUUCACGUCGCGGCCCCUGUCAGAUUCUGGUGAAUCUGCUAAUUCUGCUGU, for which the self-cleavage is 0.216.

GGCGGCCACAGCAGAAGCGUUCACGUCGCGGCCCCUGUCAGAUUCUGGUGAAUCUGCAAAUUCUGCUGU: the self-cleavage stood at 0.0258.

Take GGCGGCCACAGCAGAAGCGUUCACGUCCCGGCCCCUGUCAGAUUCUGGUGAAUCUGCGAAUUCUGCUGU: the self-cleavage was found to be 0.0181.

Consider GGCGGCCACAGCAGAAGCGUUCACGUCACGGCCCCUGUCAGAUUCUGGUGAAUCUGCGAAUUCUGCUGU, for which the self-cleavage was 0.0239.

In the case of GGCGGCCACAGCAGAAGCGUUCACGUCGCGCCCCCUGUCAGAUUCUGGUGAAUCUGCGAAUUCUGCUGU, the self-cleavage was 0.0554.

As to GGCGGCCACAGCAGAAGCGUUCACGUCGCGGCCCCUGUCAGAUUCUGGCGAAUCUGCGAAUUCUGCUGU, the self-cleavage is 0.149.

For GGCGGCCACAGCAGAAGCGUUCACGUCGCGGCCCCUGUCAGAUUCUGGGGAAUCUGCGAAUUCUGCUGU, the self-cleavage came to 0.039.

For GGCGGCCACAGCAGAAGCGUUCACGUCGCGGCCCCUGUCAGAUUCUGGUGAAGCUGCGAAUUCUGCUGU, the self-cleavage was 0.0664.

Take GGCGGCCACAGCAGAAGCGUUCACGUCGCGGCCCCUGUCAGAUUCUGGUGAACCUGCGAAUUCUGCUGU: the self-cleavage worked out at 0.0464.

GGCGGCCACAGCACAAGCGUUCACGUCGCGGCCCCUGUCAGAUUCUGGUGAAUCUGCGAAUUCUGCUGU: the self-cleavage came to 0.0467.

As for GGCGGCCACAGCAAAAGCGUUCACGUCGCGGCCCCUGUCAGAUUCUGGUGAAUCUGCGAAUUCUGCUGU, the self-cleavage came to 0.0364.

For GGCGGCCACAGCAUAAGCGUUCACGUCGCGGCCCCUGUCAGAUUCUGGUGAAUCUGCGAAUUCUGCUGU, the self-cleavage was 0.0909.

GGCGGCCACAGCAGAAGCGUUCACGUCGCGGCCCCUGUCAGAUUCUGGUAAAUCUGCGAAUUCUGCUGU: the self-cleavage was 0.0909.

As for GGCGGCCACAGCAGAAGCGUUCACGUCGCGGCCCCUGUCAGAUUCUGGUGAAUCUGCGAAUUCUGAUGU, the self-cleavage stood at 0.0406.

As to GGCGGCCACAGCAGAAGCGUUCACGUCGCGGCCCCUGUCAGAUUCUGGUGAAUCUGCGAAUUCUGGUGU, the self-cleavage is 0.0391.

As to GGCGGCCACAGCAGAAGCGUUCACGUCGCGGCCCCUGUCAGAUUCUGGUGAAUCUUCGAAUUCUGCUGU, the self-cleavage worked out at 0.033.

Regarding GGCGGCCACAUCAGAAGCGUUCACGUCGCGGCCCCUGUCAGAUUCUGGUGAAUCUGCGAAUUCUGCUGU, the self-cleavage stood at 0.11.

Regarding GGCGGCCACAACAGAAGCGUUCACGUCGCGGCCCCUGUCAGAUUCUGGUGAAUCUGCGAAUUCUGCUGU, the self-cleavage was 0.0327.

Take GGCGGCCACACCAGAAGCGUUCACGUCGCGGCCCCUGUCAGAUUCUGGUGAAUCUGCGAAUUCUGCUGU: the self-cleavage was determined as 0.0692.

On to GGCAGCCACAGCAGAAGCGUUCACGUCGCGGCCCCUGUCAGAUUCUGGUGAAUCUGCGAAUUCUGCUGU, for which the self-cleavage amounted to 0.0691.

Regarding GGCUGCCACAGCAGAAGCGUUCACGUCGCGGCCCCUGUCAGAUUCUGGUGAAUCUGCGAAUUCUGCUGU, the self-cleavage worked out at 0.0461.

As to GGCCGCCACAGCAGAAGCGUUCACGUCGCGGCCCCUGUCAGAUUCUGGUGAAUCUGCGAAUUCUGCUGU, the self-cleavage came to 0.137.

Take GGCGGCCACAGCAGAAGCGUUCACGUCGCGGCCCCUGUCAGAUUCUGGUGAAUCGGCGAAUUCUGCUGU: the self-cleavage was 0.0373.

Regarding GGCGGCCACAGCAGAAGCGUUCACGUCGCGGCCCCUGUCAGAUUCUGGUGAAUCAGCGAAUUCUGCUGU, the self-cleavage was found to be 0.0482.

As to GGCGGCCACAGCAGAAGCGUUCACGUCGCGGCCCCUGUCAGAUUCUGGUGAAUCCGCGAAUUCUGCUGU, the self-cleavage amounted to 0.0498.

For GGCGGCCACAGCAGAAGCGUUCACGUCGCGGCCCCUGUCAAAUUCUGGUGAAUCUGCGAAUUCUGCUGU, the self-cleavage worked out at 0.0418.

Values taken from the RNAGym collection of RNA variant scans (doi:10.7554/elife.80360).
